Like-named read-outs stand apart in the source and are kept apart here. *1 amine or outer side, *2 acyl side, *3 side chain or, on linkers, in order; H or OH if unused. Bridges are numbered along the chain shown (N, C = ends). [ ]: non-standard residue; d: D form. Tyr(All) = C=CCOc1ccc(C[C@H](N[*:1])C(=O)[*:2])cc1
Assays:
Assay in all cases: radioligand binding
arodyn analog 3 [1] = biological target: T1, arodyn analog 3 (staple 1-2; also: RCM olefin trans)
T1 chain: Ac-[Tyr(All)][Tyr(All)]FRLRRIRPK-NH2

arodyn analog 6 [2] = biological target: T2, arodyn analog 6 (SMILES …)
T2 chain: Ac-F[Tyr(All)]FRLRRIRPK-NH2

arodyn analog 5 [3] = biological target: T3, arodyn analog 5
T3 chain: Ac-[Tyr(All)]FFRLRRIRPK-NH2

arodyn analog 7 [4] = biological target: T4, arodyn analog 7 (SMILES …)
T4 chain: Ac-FF[Tyr(All)]RLRRIRPK-NH2

arodyn analog 4 [5] = biological target: T5, arodyn analog 4 (staple 2-3; also: RCM olefin trans)
T5 chain: Ac-F[Tyr(All)][Tyr(All)]RLRRIRPK-NH2

arodyn analog 3 [6] = biological target: T1, arodyn analog 3
arodyn analog 6 [7] = biological target: T2, arodyn analog 6
arodyn analog 5 [8] = biological target: T3, arodyn analog 5
arodyn analog 7 [9] = biological target: T4, arodyn analog 7
arodyn analog 4 [10] = biological target: T5, arodyn analog 4

B1: μ opioid receptor (protein)
chain: MDSSTGPGNTSDCSDPLAQASCSPAPGSWLNLSHVDGNQSDPCGLNRTGLGGNDSLCPQTGSPSMVTAITIMALYSIVCVVGLFGNFLVMYVIVRYTKMKTATNIYIFNLALADALATSTLPFQSVNYLMGTWPFGTILCKIVISIDYYNMFTSIFTLCTMSVDRYIAVCHPVKALDFRTPRNAKIVNVCNWILSSAIGLPVMFMATTKYRQGSIDCTLTFSHPTWYWENLLKICVFIFAFIMPVLIITVCYGLMILRLKSVRMLSGSKEKDRNLRRITRMVLVVVAVFIVCWTPIHIYVIIKALITIPETTFQTVSWHFCIALGYTNSCLNPVLYAFLDENFKRCFREFCIPTSSTIEQQNSTRVRQNTREHPSTANTVDRTNHQLENLEAETAPLP
Ki (arodyn analog 3 [1]): 1920 nM | Ki (arodyn analog 6 [2]): 1460 nM | Ki (arodyn analog 5 [3]): 1170 nM | Ki (arodyn analog 7 [4]): 1430 nM | Ki (arodyn analog 4 [5]): 903 nM

B2: κ opioid receptor (protein)
chain: MESPIQIFRGEPGPTCAPSACLLPNSSSWFPNWAESDSNGSVGSEDQQLEPAHISPAIPVIITAVYSVVFVVGLVGNSLVMFVIIRYTKMKTATNIYIFNLALADALVTTTMPFQSAVYLMNSWPFGDVLCKIVISIDYYNMFTSIFTLTMMSVDRYIAVCHPVKALDFRTPLKAKIINICIWLLASSVGISAIVLGGTKVREDVDVIECSLQFPDDEYSWWDLFMKICVFVFAFVIPVLIIIVCYTLMILRLKSVRLLSGSREKDRNLRRITKLVLVVVAVFIICWTPIHIFILVEALGSTSHSTAVLSSYYFCIALGYTNSSLNPVLYAFLDENFKRCFRDFCFPIKMRMERQSTNRVRNTVQDPASMRDVGGMNKPV
Ki (arodyn analog 3 [6]): 71.7 nM | Ki (arodyn analog 6 [7]): 66.3 nM | Ki (arodyn analog 5 [8]): 83.3 nM | Ki (arodyn analog 7 [9]): 134 nM | Ki (arodyn analog 4 [10]): 55.4 nM

Source: paper PMC6005658 (2017)
